Experimental data from patent publication US20250277030A1, “ANTI-NAPI2B ANTIBODIES AND METHODS OF USE” (Zymeworks BC Inc., priority 2022, published 2025).

Legend:
[1] = biological target: T1, NaPi2b expressed on IGROV-1 cells (Homo sapiens, UniProt O95436); experiment: Cellular binding to IGROV-1 cells by flow cytometry (Example 19); details: NB = no binding (apparent Kd >150 nM)
T1 construct: IGROV-1 cells express endogenous NaPi2b at a high level; endogenous in cells; host or cells: IGROV-1
T1 sequence (O95436 1-690): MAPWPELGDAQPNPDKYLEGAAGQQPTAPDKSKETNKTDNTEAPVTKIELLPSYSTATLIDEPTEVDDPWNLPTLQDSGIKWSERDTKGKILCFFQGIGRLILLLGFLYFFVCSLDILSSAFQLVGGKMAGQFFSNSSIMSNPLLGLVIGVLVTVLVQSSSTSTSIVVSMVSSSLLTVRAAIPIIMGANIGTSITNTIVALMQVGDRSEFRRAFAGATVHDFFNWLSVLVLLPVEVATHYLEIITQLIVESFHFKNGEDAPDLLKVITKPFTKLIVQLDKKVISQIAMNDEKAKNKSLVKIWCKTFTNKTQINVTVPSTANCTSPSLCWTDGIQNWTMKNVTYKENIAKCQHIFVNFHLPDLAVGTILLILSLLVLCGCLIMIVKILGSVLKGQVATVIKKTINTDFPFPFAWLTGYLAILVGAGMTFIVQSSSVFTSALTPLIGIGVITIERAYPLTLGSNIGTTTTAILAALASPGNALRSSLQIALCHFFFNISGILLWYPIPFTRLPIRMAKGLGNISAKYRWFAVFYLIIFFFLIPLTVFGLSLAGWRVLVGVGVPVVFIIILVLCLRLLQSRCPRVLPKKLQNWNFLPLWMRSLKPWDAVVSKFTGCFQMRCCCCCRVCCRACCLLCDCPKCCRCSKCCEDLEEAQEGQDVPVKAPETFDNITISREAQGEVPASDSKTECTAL
Procedure: (§1) Briefly, cells were seeded at 50,000 cells/well in conical-bottom 96-well plates and treated with test antibody for 24 hours at 4° C. to prevent internalization. Palivizumab (anti-RSV antibody, v22277) was included as a negative control. […] Following incubation, cells were washed and stained with anti-Human IgG Fc AF647 conjugate (Jackson Immuno Research Labs, West Grove, PA; Cat. No. 109-605-098) at 4° C. for 30 min. Following incubation and washing, fluorescence was detected by flow cytometry on a BD LSRFortessa™ Cell Analyzer (BD Biosciences, Franklin Lake, NJ) with 1,000 minimum events collected per well. The AF647/APC-A GeoMean (fluorescence signal geometric mean, proportional to anti-Human AF647 binding) was calculated for the live cell population using FlowJo™ Version 10.8.1 (BD Biosciences, Franklin Lake, NJ) and plotted for each test antibody using GraphPad Prism Version 9 (GraphPad Software, San Diego, CA).
The ability of the humanized antibody variants v38591 and v29456 to bind to NaPi2b expressed on cells was assessed on endogenous NaPi2b-expressing tumor cell lines IGROV-1 (ovarian adenocarcinoma) and TOV-21G (ovarian carcinoma) by flow cytometry. IGROV-1 and TOV-21G cells express endogenous NaPi2b at high and moderate levels, respectively, as described in Example 10.
Cellular binding was performed according to methods described in Example 13.

[2] = biological target: T2, Insulin (Homo sapiens, UniProt P01308); experiment: NS-ELISA non-specific binding, insulin; details: mAb at 100 nM
T2 construct: purchased Sigma-Aldrich 19278
T2 sequence (P01308 25-54 limits assumed): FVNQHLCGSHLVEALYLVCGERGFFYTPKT
T2 sequence (P01308 90-110 limits assumed): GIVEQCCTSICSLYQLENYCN
Procedure: The isoelectric point was measured by capillary isoelectric focusing (cIEF), the propensity for self-aggregation was measured by Affinity-capture self-interaction nanoparticle spectroscopy (AC-SINS) and non-specific binding was measured by NS-ELISA, as described below.
NS-ELISA was used to measure the propensity of the antibodies to bind to a range of biomolecules to emulate the undesirable non-specific interactions to biological matrices in vivo as described below.
NS-ELISA was carried out in Corning®96-well EIA/RIA Easy Wash™ Clear Flat Bottom Polystyrene High Bind Microplate coated overnight at 4° C. with 50 μL of Heparin (Sigma, H3149) diluted with 50 mM sodium carbonate pH 9.6 to a final concentration of 250 μg/mL. The plate was incubated for 2 days at room temperature, wells that were coated with heparin were not covered to allow air dry. […] Reactions were stopped after approximately 10 minutes by adding 100 μL of 1 M HCl to each well, and absorbance was read at 450 nm. Binding scores were calculated as the ratio of the ELISA signal of the antibody (antibody-treated) to the signal of a well containing buffer instead of the primary antibody (untreated). The cutoffs considered for each binding molecule (ssDNA, KLH, insulin, dsDNA and heparin) were internally calculated, based on the average of Zymeworks Inc. produced antibodies and antibodies benchmarks published in the literature.

[3] = biological target: T1, NaPi2b expressed on IGROV-1 cells; experiment: Cellular binding of bivalent antibodies to IGROV-1 cells by flow cytometry (Example 13); details: IGROV-1, 24 hours at 4° C., NB = no cellular binding
Procedure: IGROV-1 cells express endogenous NaPi2b at a high level.
as §1

B1: v29456: humanized anti-NaPi2b IgG1/kappa antibody H1L2; VH SEQ ID NO:24, VL SEQ ID NO:29 (antibody, V domains shown)
VH: QVQLVQSGAEVKKPGASVKVSCKASGFTFTSYNVHWVRQAPGQGLEWMGAISPGNGDLSYAQKFQGRVTMTRDTSTSTVYMELSSLRSEDTAVYYCARGRTGMGAVDYWGQGTLVTVSS
VL: DVQMTQSPSSLSASVGDRVTITCRASQDVYSYLNWYQQKPGKAVKLLIYYTSRLQSGVPSRFSGSGSGTDYTLTISSLQPEDFATYYCQQYNIFPWTFGQGTKLEIK
modifications: v29452, v29456, v29460 VH (H1); v29453, v29454, v29455, v29456 VL (L2)
Bmax (MFI) [1]: 20,096 MFI | Curve Hill Slope (h) [1]: 1.1 | Kd [1]: 1.28 nM | NS-ELISA binding score (ratio of signal between antibody-treated and untreated), Insulin [2]: 1.05 | Bmax (MFI) [3]: 40,867 MFI | Curve Hill Slope (h) [3]: 1.1 | Kd ([3]; apparent Kd): 1.1 nM
